Results on eight molecules are retold here after article PMC4664265, “Substrate-Induced Dimerization of Engineered Monomeric Variants of Triosephosphate Isomerase from Trichomonas vaginalis” (PLoS ONE, 2015).

The target in series [1] is TvTIM1 I45A (Trichomonas vaginalis) (UniProt A2EGX9). Briefly: SEC; gel filtration at 7 mg/ml (~260 μM) in Tris pH 7.4, 100 mM NaCl; dimer to monomers.
The target is the same in series [2]. In words: AUC.
For series [3] the target is unchanged.
Series [4] addresses TvTIM1 I45F (Trichomonas vaginalis) (UniProt A2EGX9).
Series [5] concerns the target TvTIM1 I45G (Trichomonas vaginalis) (UniProt A2EGX9). Briefly: SEC; gel filtration at 7 mg/ml (~260 μM) in Tris pH 7.4, 100 mM NaCl; dimer to monomers.
Series [6] has the same target.
Series [7] concerns the target TvTIM1 I45G-Q52C double mutant (Trichomonas vaginalis) (UniProt A2EGX9).
In series [8] the target is TvTIM1 I45Y (Trichomonas vaginalis) (UniProt A2EGX9).
Series [9] concerns the molecule itself. In words: SEC; gel filtration at 7 mg/ml (~260 μM) in Tris pH 7.4, 100 mM NaCl; dimer to monomers. (Size exclusion chromatography separates by hydrodynamic size, large species first.)
Series [10] deals with the molecule itself. In words: AUC; sedimentation velocity, 20°C, 129,024 rcf, absorbance at 280 nm, c(s) with SEDFIT; protein 7 to 35 μM, no ligand.

The term stoichiometry N denotes a count of units in the complex or per binding partner.

In series [1], “TvTIM1 I45A (from UniProt A2EGX9) (enzyme)” yielded a percent of the total injected protein in the dimer peak of 13% and a percent of the total protein in the dimer peak of 3%. In series [2], this molecule displayed a percent dimer with 20 μM PGH of 17%, a percent dimer with 250 μM PGH of 38%, a percent dimer with 600 μM PGH of 38% and a percent dimer with 1000 μM PGH of 44%. The same molecule had a percent dimer with 2000 μM PGH in [2] of 46%. Besides, in series [3], the Kcat/Km (substrate DGAP, coupled assay, 25°C; enzyme at 2 nM) came to 198000 M⁻¹ s⁻¹.
For “TvTIM1 I45F (from UniProt A2EGX9) (enzyme)”, in series [4], the Kcat/Km (substrate DGAP, coupled assay, 25°C; enzyme at 10 nM) worked out at 33300 M⁻¹ s⁻¹.
As for “TvTIM1 I45G (from UniProt A2EGX9) (enzyme)”, the percent of the total protein in the dimer peak in [5] amounted to 6%. The same molecule had a Kcat/Km (substrate DGAP, coupled assay, 25°C; enzyme at 5 nM) in [6] of 40800 M⁻¹ s⁻¹.
In series [7], “TvTIM1 I45G-Q52C double mutant (from UniProt A2EGX9 1-252) (enzyme)” displayed a Kcat/Km of I45G-Q52C before cross-linking (substrate DGAP, coupled assay, 25°C) of 39700 M⁻¹ s⁻¹ and a Kcat/Km of the purified cross-linked I45G-Q52C dimer (substrate DGAP, coupled assay, 25°C) of 2.5e+06 M⁻¹ s⁻¹.
Regarding “TvTIM1 I45Y (from UniProt A2EGX9) (enzyme)”, the Kcat/Km (substrate DGAP, coupled assay, 25°C; enzyme at 12 nM) in [8] came to 12200 M⁻¹ s⁻¹.

B1: TvTIM1 I45V (enzyme)
chain: MRTFFVGGNWKANPKTVEEAEKLIEMLNGAKVEGNVEVVVAAPFVFLPTLQQKLRKDWKVSAENVFTKPNGAFTGEVTVPMIKSFGIEWTILGHSERRDILKEDDEFLAAKAKFALENGMKIIYCCGEHLSEREAGKASEFVSAQIEKMIPAIPAGKWDDVVIAYEPIWAIGTGKVASTQDAQEMCKVIRDILAAKVGADIANKVRILYGGSVKPNNCNELAACPDVDGFLVGGASLEPGFINIVNSNVHSK
Consider B1, for which the “stoichiometry N” value in series [9] is 2.

B2: Triosephosphate isomerase 1 from Trichomonas vaginalis, wild type (enzyme, UniProt A2EGX9 1-252, looked up)
chain: MRTFFVGGNWKANPKTVEEAEKLIEMLNGAKVEGNVEVVVAAPFIFLPTLQQKLRKDWKVSAENVFTKPNGAFTGEVTVPMIKSFGIEWTILGHSERRDILKEDDEFLAAKAKFALENGMKIIYCCGEHLSEREAGKASEFVSAQIEKMIPAIPAGKWDDVVIAYEPIWAIGTGKVASTQDAQEMCKVIRDILAAKVGADIANKVRILYGGSVKPNNCNELAACPDVDGFLVGGASLEPGFINIVNSNVHSK
notes: triosephosphate isomerase TvTIM1 of Trichomonas vaginalis; Homodimer in solution (gel filtration, AUC); the rows are of one chain with another; also called TvTIM1; TIM1WT
For the molecule B2, in series [10], the “stoichiometry N” value came out at 2.

B3: TvTIM1 I45L (enzyme)
chain: MRTFFVGGNWKANPKTVEEAEKLIEMLNGAKVEGNVEVVVAAPFLFLPTLQQKLRKDWKVSAENVFTKPNGAFTGEVTVPMIKSFGIEWTILGHSERRDILKEDDEFLAAKAKFALENGMKIIYCCGEHLSEREAGKASEFVSAQIEKMIPAIPAGKWDDVVIAYEPIWAIGTGKVASTQDAQEMCKVIRDILAAKVGADIANKVRILYGGSVKPNNCNELAACPDVDGFLVGGASLEPGFINIVNSNVHSK
In the case of B3, in series [9], the “stoichiometry N” value amounted to 2.
